Target: RNA polymerase II purified from rat liver (rat)

- rate of RNA chain elongation, runoff transcription from the AdML promoter: > 5 fold
Substance: RNA polymerase transcription factor SIII (Elongin), purified from rat liver

— patent US5792634
